Laboratory results from patent publication US20190275081A1 (published 2019).

How the values were obtained:
[1] = target: T1, NY-ESO-1 peptide on HLA-A*02:01 (human); experiment: killing
T1 peptide: SLLMWITQC

[2] = target: T1, NY-ESO-1 peptide on HLA-A*02:01; experiment: cytokine release

B1: 19305DP (TCR, V domains shown)
Valpha: SQQGEEDPQALSIQEGENATMNCSYKTSINNLQWYRQNSGRGLVHLILIRSNEREKHSGRLRVTLDTSKKSSSLLITASRAADTASYFCATDGGGTLTFGKGTMLLVSP
Vbeta: DAGVIQSPRHEVTEMGQEVTLRCKPISGHDYLFWYRQTMMRGLELLIYFNNNVPIDDSGMPEDRFSAKMPNASFSTLKIQPSEPRDSAVYFCASKWGGTEAFFGQGTRLTVV
- binding result [1]: recognises

B2: JD (TCR, V domains shown)
Valpha: QKEVEQNSGPLSVPEGAIASLNCTYSDRGSQSFFWYRQYSGKSPELIMFIYSNGDKEDGRFTAQLNKASQYVSLLIRDSQPSDSATYLCAVGATNKLIFGTGTLLAVQP
Vbeta: EAGVTQFPSHSVIEKGQTVTLRCDPISGHDNLYWYRRVMGKEIKFLLHFVKESKQDESGMPNNRFLAERTGGTYSTLKVQPAELEDSGVYFCASSQAYGTEAFFGQGTRLTVV
- binding result [2]: recognises

B3: AL (TCR, V domains shown)
Valpha: QKEVEQNSGPLSVPEGAIASLNCTYSDRGSQSFFWYRQYSGKSPELIMSIYSNGDKEDGRFTAQLNKASQYVSLLIRDSQPSDSATYLCAVGGLTSSNTGKLIFGQGTTLQVKP
Vbeta: DVKVTQSSRYLVKRTGEKVFLECVQDMDHENMFWYRQDPGLGLRLIYFSYDVKMKEKGDIPEGYSVSREKKERFSLILESASTNQTSMYLCASSNQIYGYTFGSGTRLTVV
- binding result [1]: recognises
